{"source": "patent US20040005554A1", "key": {"[1]": {"molecular_target": "ARP-GFP fusion protein (human ARP, Leu form from pBSSKII ARP.4, fused to EGFP of pEGFP-N2) (human)", "assay": "anti-GFP plate capture, detection with anti-FLAG M2 and anti-mouse IgG-AP; concentrated medium of cotransfection"}, "[2]": {"molecular_target": "ARP-GFP fusion protein (human ARP, Leu form from pBSSKII ARP.4, fused to EGFP of pEGFP-N2) (human)", "assay": "anti-GFP plate capture, detection with anti-FLAG M2 and anti-mouse IgG-AP; unconcentrated medium of cotransfection"}}}
{"substance": "FLAG-BRP fusion protein (N-terminal FLAG tag on predicted mature human BRP, secreted through the mouse preprotrypsin signal) (from UniProt Q86YW7 25-130)", "values": [{"measurement": "Abs 405 nm", "setting": "[1]", "result": 1.41, "unit": "Abs 405 nm"}, {"measurement": "Abs 405 nm", "setting": "[2]", "result": 0.972, "unit": "Abs 405 nm"}]}
